Laboratory results reported in patent publication US20230357348A1 (AstraZeneca / MedImmune, published 2023).
Starred links: 1 amine or outer side, 2 acyl side, 3 side chain; linkers in the order of their positions; H or OH if unused. Non-standard residues stand in square brackets, D forms with d. Groups on a side chain read outwards from the residue. No end group written: not given here. *: point of attachment. C20 diacid = O=C(O)CCCCCCCCCCCCCCCCCCC(=O)*; C18 diacid = O=C(O)CCCCCCCCCCCCCCCCC(=O)*; γGlu = O=C(O)[C@H](CCC(=O)[*:2])N[*:1]; αMeF = C[C@](N)(Cc1ccccc1)C(=O)O; AEEA = NCCOCCOCC(=O)O; Aib = CC(C)(N)C(=O)O

B1: Peptide 412 (peptide)
peptide: H[Aib]QGTFTSDVSK[αMeF]LDTK([AEEA-AEEA-γGlu-C20 diacid])RAQDFVAWLEAGG-OH
modifications: N-terminus assumed
SMILES: CC(C)C[C@H](NC(=O)[C@H](Cc1c[nH]c2ccccc12)NC(=O)[C@H](C)NC(=O)[C@@H](NC(=O)[C@H](Cc1ccccc1)NC(=O)[C@H](CC(=O)O)NC(=O)[C@H](CCC(N)=O)NC(=O)[C@H](C)NC(=O)[C@H](CCCNC(=N)N)NC(=O)[C@H](CCCCNC(=O)COCCOCCNC(=O)COCCOCCNC(=O)CC[C@H](NC(=O)CCCCCCCCCCCCCCCCCCC(=O)O)C(=O)O)NC(=O)[C@@H](NC(=O)[C@H](CC(=O)O)NC(=O)[C@H](CC(C)C)NC(=O)[C@](C)(Cc1ccccc1)NC(=O)[C@H](CCCCN)NC(=O)[C@H](CO)NC(=O)[C@@H](NC(=O)[C@H](CC(=O)O)NC(=O)[C@H](CO)NC(=O)[C@@H](NC(=O)[C@H](Cc1ccccc1)NC(=O)[C@@H](NC(=O)CNC(=O)[C@H](CCC(N)=O)NC(=O)C(C)(C)NC(=O)[C@@H](N)Cc1c[nH]cn1)[C@@H](C)O)[C@@H](C)O)C(C)C)[C@@H](C)O)C(C)C)C(=O)N[C@@H](CCC(=O)O)C(=O)N[C@@H](C)C(=O)NCC(=O)NCC(=O)O
B2: Peptide 417 (peptide)
peptide: H[Aib]QGTFTSDVSK[αMeF]LDTK([AEEA-AEEA-γGlu-γGlu-C18 diacid])RAQDFVAWLEA[Aib]G-OH
modifications: N-terminus assumed
SMILES: CC(C)C[C@H](NC(=O)[C@H](Cc1c[nH]c2ccccc12)NC(=O)[C@H](C)NC(=O)[C@@H](NC(=O)[C@H](Cc1ccccc1)NC(=O)[C@H](CC(=O)O)NC(=O)[C@H](CCC(N)=O)NC(=O)[C@H](C)NC(=O)[C@H](CCCNC(=N)N)NC(=O)[C@H](CCCCNC(=O)COCCOCCNC(=O)COCCOCCNC(=O)CC[C@H](NC(=O)CC[C@H](NC(=O)CCCCCCCCCCCCCCCCC(=O)O)C(=O)O)C(=O)O)NC(=O)[C@@H](NC(=O)[C@H](CC(=O)O)NC(=O)[C@H](CC(C)C)NC(=O)[C@](C)(Cc1ccccc1)NC(=O)[C@H](CCCCN)NC(=O)[C@H](CO)NC(=O)[C@@H](NC(=O)[C@H](CC(=O)O)NC(=O)[C@H](CO)NC(=O)[C@@H](NC(=O)[C@H](Cc1ccccc1)NC(=O)[C@@H](NC(=O)CNC(=O)[C@H](CCC(N)=O)NC(=O)C(C)(C)NC(=O)[C@@H](N)Cc1c[nH]cn1)[C@@H](C)O)[C@@H](C)O)C(C)C)[C@@H](C)O)C(C)C)C(=O)N[C@@H](CCC(=O)O)C(=O)N[C@@H](C)C(=O)NC(C)(C)C(=O)NCC(=O)O
B3: Peptide 418 (peptide)
peptide: H[Aib]QGTFTSDVSK[αMeF]LDTK([AEEA-AEEA-γGlu-γGlu-C20 diacid])RAQDFVAWLEA[Aib]G-OH
modifications: N-terminus assumed
SMILES: CC(C)C[C@H](NC(=O)[C@H](Cc1c[nH]c2ccccc12)NC(=O)[C@H](C)NC(=O)[C@@H](NC(=O)[C@H](Cc1ccccc1)NC(=O)[C@H](CC(=O)O)NC(=O)[C@H](CCC(N)=O)NC(=O)[C@H](C)NC(=O)[C@H](CCCNC(=N)N)NC(=O)[C@H](CCCCNC(=O)COCCOCCNC(=O)COCCOCCNC(=O)CC[C@H](NC(=O)CC[C@H](NC(=O)CCCCCCCCCCCCCCCCCCC(=O)O)C(=O)O)C(=O)O)NC(=O)[C@@H](NC(=O)[C@H](CC(=O)O)NC(=O)[C@H](CC(C)C)NC(=O)[C@](C)(Cc1ccccc1)NC(=O)[C@H](CCCCN)NC(=O)[C@H](CO)NC(=O)[C@@H](NC(=O)[C@H](CC(=O)O)NC(=O)[C@H](CO)NC(=O)[C@@H](NC(=O)[C@H](Cc1ccccc1)NC(=O)[C@@H](NC(=O)CNC(=O)[C@H](CCC(N)=O)NC(=O)C(C)(C)NC(=O)[C@@H](N)Cc1c[nH]cn1)[C@@H](C)O)[C@@H](C)O)C(C)C)[C@@H](C)O)C(C)C)C(=O)N[C@@H](CCC(=O)O)C(=O)N[C@@H](C)C(=O)NC(C)(C)C(=O)NCC(=O)O
B4: Peptide 416 (peptide)
peptide: H[Aib]QGTFTSDVSK[αMeF]LESK([AEEA-AEEA-γGlu-C20 diacid])RAQDFVRWLEA[Aib]G-OH
modifications: N-terminus assumed
SMILES: CC(C)C[C@H](NC(=O)[C@H](Cc1c[nH]c2ccccc12)NC(=O)[C@H](CCCNC(=N)N)NC(=O)[C@@H](NC(=O)[C@H](Cc1ccccc1)NC(=O)[C@H](CC(=O)O)NC(=O)[C@H](CCC(N)=O)NC(=O)[C@H](C)NC(=O)[C@H](CCCNC(=N)N)NC(=O)[C@H](CCCCNC(=O)COCCOCCNC(=O)COCCOCCNC(=O)CC[C@H](NC(=O)CCCCCCCCCCCCCCCCCCC(=O)O)C(=O)O)NC(=O)[C@H](CO)NC(=O)[C@H](CCC(=O)O)NC(=O)[C@H](CC(C)C)NC(=O)[C@](C)(Cc1ccccc1)NC(=O)[C@H](CCCCN)NC(=O)[C@H](CO)NC(=O)[C@@H](NC(=O)[C@H](CC(=O)O)NC(=O)[C@H](CO)NC(=O)[C@@H](NC(=O)[C@H](Cc1ccccc1)NC(=O)[C@@H](NC(=O)CNC(=O)[C@H](CCC(N)=O)NC(=O)C(C)(C)NC(=O)[C@@H](N)Cc1c[nH]cn1)[C@@H](C)O)[C@@H](C)O)C(C)C)C(C)C)C(=O)N[C@@H](CCC(=O)O)C(=O)N[C@@H](C)C(=O)NC(C)(C)C(=O)NCC(=O)O
B5: Peptide 415 (peptide)
peptide: H[Aib]QGTFTSDVSK[αMeF]LESK([AEEA-AEEA-γGlu-C18 diacid])RAQDFVRWLEA[Aib]G-OH
modifications: N-terminus assumed
SMILES: CC(C)C[C@H](NC(=O)[C@H](Cc1c[nH]c2ccccc12)NC(=O)[C@H](CCCNC(=N)N)NC(=O)[C@@H](NC(=O)[C@H](Cc1ccccc1)NC(=O)[C@H](CC(=O)O)NC(=O)[C@H](CCC(N)=O)NC(=O)[C@H](C)NC(=O)[C@H](CCCNC(=N)N)NC(=O)[C@H](CCCCNC(=O)COCCOCCNC(=O)COCCOCCNC(=O)CC[C@H](NC(=O)CCCCCCCCCCCCCCCCC(=O)O)C(=O)O)NC(=O)[C@H](CO)NC(=O)[C@H](CCC(=O)O)NC(=O)[C@H](CC(C)C)NC(=O)[C@](C)(Cc1ccccc1)NC(=O)[C@H](CCCCN)NC(=O)[C@H](CO)NC(=O)[C@@H](NC(=O)[C@H](CC(=O)O)NC(=O)[C@H](CO)NC(=O)[C@@H](NC(=O)[C@H](Cc1ccccc1)NC(=O)[C@@H](NC(=O)CNC(=O)[C@H](CCC(N)=O)NC(=O)C(C)(C)NC(=O)[C@@H](N)Cc1c[nH]cn1)[C@@H](C)O)[C@@H](C)O)C(C)C)C(C)C)C(=O)N[C@@H](CCC(=O)O)C(=O)N[C@@H](C)C(=O)NC(C)(C)C(=O)NCC(=O)O
B6: Peptide 411 (peptide)
peptide: H[Aib]QGTFTSDVSK[αMeF]LDTK([AEEA-AEEA-γGlu-C18 diacid])RAQDFVAWLEAGG-OH
modifications: N-terminus assumed
SMILES: CC(C)C[C@H](NC(=O)[C@H](Cc1c[nH]c2ccccc12)NC(=O)[C@H](C)NC(=O)[C@@H](NC(=O)[C@H](Cc1ccccc1)NC(=O)[C@H](CC(=O)O)NC(=O)[C@H](CCC(N)=O)NC(=O)[C@H](C)NC(=O)[C@H](CCCNC(=N)N)NC(=O)[C@H](CCCCNC(=O)COCCOCCNC(=O)COCCOCCNC(=O)CC[C@H](NC(=O)CCCCCCCCCCCCCCCCC(=O)O)C(=O)O)NC(=O)[C@@H](NC(=O)[C@H](CC(=O)O)NC(=O)[C@H](CC(C)C)NC(=O)[C@](C)(Cc1ccccc1)NC(=O)[C@H](CCCCN)NC(=O)[C@H](CO)NC(=O)[C@@H](NC(=O)[C@H](CC(=O)O)NC(=O)[C@H](CO)NC(=O)[C@@H](NC(=O)[C@H](Cc1ccccc1)NC(=O)[C@@H](NC(=O)CNC(=O)[C@H](CCC(N)=O)NC(=O)C(C)(C)NC(=O)[C@@H](N)Cc1c[nH]cn1)[C@@H](C)O)[C@@H](C)O)C(C)C)[C@@H](C)O)C(C)C)C(=O)N[C@@H](CCC(=O)O)C(=O)N[C@@H](C)C(=O)NCC(=O)NCC(=O)O
B7: Peptide 414 (peptide)
peptide: H[Aib]QGTFTSDVSK[αMeF]LDKK([AEEA-AEEA-γGlu-C18 diacid])RARDFVRWLL[Aib]E-OH
modifications: N-terminus assumed
SMILES: CC(C)C[C@H](NC(=O)[C@H](Cc1c[nH]c2ccccc12)NC(=O)[C@H](CCCNC(=N)N)NC(=O)[C@@H](NC(=O)[C@H](Cc1ccccc1)NC(=O)[C@H](CC(=O)O)NC(=O)[C@H](CCCNC(=N)N)NC(=O)[C@H](C)NC(=O)[C@H](CCCNC(=N)N)NC(=O)[C@H](CCCCNC(=O)COCCOCCNC(=O)COCCOCCNC(=O)CC[C@H](NC(=O)CCCCCCCCCCCCCCCCC(=O)O)C(=O)O)NC(=O)[C@H](CCCCN)NC(=O)[C@H](CC(=O)O)NC(=O)[C@H](CC(C)C)NC(=O)[C@](C)(Cc1ccccc1)NC(=O)[C@H](CCCCN)NC(=O)[C@H](CO)NC(=O)[C@@H](NC(=O)[C@H](CC(=O)O)NC(=O)[C@H](CO)NC(=O)[C@@H](NC(=O)[C@H](Cc1ccccc1)NC(=O)[C@@H](NC(=O)CNC(=O)[C@H](CCC(N)=O)NC(=O)C(C)(C)NC(=O)[C@@H](N)Cc1c[nH]cn1)[C@@H](C)O)[C@@H](C)O)C(C)C)C(C)C)C(=O)N[C@@H](CC(C)C)C(=O)NC(C)(C)C(=O)N[C@@H](CCC(=O)O)C(=O)O

The binders below were run against human glucagon receptor (hGCGR) (human, UniProt P47871 26-477) (assay: cell-based or functional assay).
Chain of human glucagon receptor (hGCGR) (P47871 26-477): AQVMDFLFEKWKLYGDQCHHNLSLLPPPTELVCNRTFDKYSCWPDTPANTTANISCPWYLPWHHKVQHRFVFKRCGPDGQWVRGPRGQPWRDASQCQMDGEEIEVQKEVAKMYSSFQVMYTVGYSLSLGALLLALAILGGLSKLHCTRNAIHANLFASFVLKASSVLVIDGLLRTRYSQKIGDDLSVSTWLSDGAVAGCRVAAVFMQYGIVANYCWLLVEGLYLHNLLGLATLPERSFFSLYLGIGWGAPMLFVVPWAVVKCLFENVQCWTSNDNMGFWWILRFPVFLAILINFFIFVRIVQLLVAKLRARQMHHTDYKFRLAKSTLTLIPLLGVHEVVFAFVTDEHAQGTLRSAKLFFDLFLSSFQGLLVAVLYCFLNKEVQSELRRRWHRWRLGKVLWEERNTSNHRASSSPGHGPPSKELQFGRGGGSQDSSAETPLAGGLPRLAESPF

| hGluc-R EC50 (pM) | Binder |
| --- | --- |
| 1020 pM | H[Aib]QGTFTSDVSK[αMeF]LDTK([AEEA-AEEA-γGlu-γGlu-C20 diacid])RAQDFVAWLEAGG-OH [Peptide 413] |
| 397 pM | B1 |
| 16.4 pM | B2 |
| 222 pM | B3 |
| 581 pM | B4 |
| 301 pM | B5 |
| 378 pM | B6 |
| 26.9 pM | B7 |

These binders were tested against human GLP-1 receptor (hGLP-1R) (human, UniProt P43220 24-463) (assay: cell-based or functional assay).

| hGLP-1R EC50 (pM) | Binder |
| --- | --- |
| 406 pM | H[Aib]QGTFTSDVSK[αMeF]LDTK([AEEA-AEEA-γGlu-γGlu-C20 diacid])RAQDFVAWLEAGG-OH [Peptide 413] |
| 186 pM | B1 |
| 33.9 pM | B2 |
| 88.1 pM | B3 |
| 67.7 pM | B4 |
| 14.7 pM | B5 |
| 98.1 pM | B6 |
| 32.3 pM | B7 |
